From patent US9657062B2, “Ghrelin analogues” (Zealand Pharma A/S, priority 2012, dated 2017)
[ ]: non-standard residue; d: D form. The star is where a group is joined. Palmitoyl = CCCCCCCCCCCCCCCC(=O)*; Octanoyl = CCCCCCCC(=O)*; Dap = NC[C@H](N)C(=O)O; Aib = CC(C)(N)C(=O)O; Inp = O=C(O)C1CCNCC1; Octyl = CCCCCCCC*

B1: H-PS-Dap(N-octanoyl)-FLSPEHQRVQQRKESKKPPA-NH2 (peptide)
peptide: H-PS[Dap](Octanoyl)FLSPEHQRVQQRKESKKPPA-NH2
SMILES: CCCCCCCC(=O)NC[C@H](NC(=O)[C@H](CO)NC(=O)[C@@H]1CCCN1)C(=O)N[C@@H](Cc1ccccc1)C(=O)N[C@@H](CC(C)C)C(=O)N[C@@H](CO)C(=O)N1CCC[C@H]1C(=O)N[C@@H](CCC(=O)O)C(=O)N[C@@H](Cc1c[nH]cn1)C(=O)N[C@@H](CCC(N)=O)C(=O)N[C@@H](CCCNC(=N)N)C(=O)N[C@H](C(=O)N[C@@H](CCC(N)=O)C(=O)N[C@@H](CCC(N)=O)C(=O)N[C@@H](CCCNC(=N)N)C(=O)N[C@@H](CCCCN)C(=O)N[C@@H](CCC(=O)O)C(=O)N[C@@H](CO)C(=O)N[C@@H](CCCCN)C(=O)N[C@@H](CCCCN)C(=O)N1CCC[C@H]1C(=O)N1CCC[C@H]1C(=O)N[C@@H](C)C(N)=O)C(C)C
B2: H-PS-Dap(N-octanoyl)-FLSPEHSRVSSRKESKKPPAKLSPR-NH2 (peptide)
peptide: H-PS[Dap](Octanoyl)FLSPEHSRVSSRKESKKPPAKLSPR-NH2
SMILES: CCCCCCCC(=O)NC[C@H](NC(=O)[C@H](CO)NC(=O)[C@@H]1CCCN1)C(=O)N[C@@H](Cc1ccccc1)C(=O)N[C@@H](CC(C)C)C(=O)N[C@@H](CO)C(=O)N1CCC[C@H]1C(=O)N[C@@H](CCC(=O)O)C(=O)N[C@@H](Cc1c[nH]cn1)C(=O)N[C@@H](CO)C(=O)N[C@@H](CCCNC(=N)N)C(=O)N[C@H](C(=O)N[C@@H](CO)C(=O)N[C@@H](CO)C(=O)N[C@@H](CCCNC(=N)N)C(=O)N[C@@H](CCCCN)C(=O)N[C@@H](CCC(=O)O)C(=O)N[C@@H](CO)C(=O)N[C@@H](CCCCN)C(=O)N[C@@H](CCCCN)C(=O)N1CCC[C@H]1C(=O)N1CCC[C@H]1C(=O)N[C@@H](C)C(=O)N[C@@H](CCCCN)C(=O)N[C@@H](CC(C)C)C(=O)N[C@@H](CO)C(=O)N1CCC[C@H]1C(=O)N[C@@H](CCCNC(=N)N)C(N)=O)C(C)C
B3: H-PS-Dap(N-octanoyl)-FLSP-NH2 (peptide)
peptide: H-PS[Dap](Octanoyl)FLSP-NH2
SMILES: CCCCCCCC(=O)NC[C@H](NC(=O)[C@H](CO)NC(=O)[C@@H]1CCCN1)C(=O)N[C@@H](Cc1ccccc1)C(=O)N[C@@H](CC(C)C)C(=O)N[C@@H](CO)C(=O)N1CCC[C@H]1C(N)=O
B4: H-Aib-S-S(O-octyl)-FLSPEHQRVQQRKESKKPPAKLQPR-OH (peptide)
peptide: H-[Aib]SS(Octyl)FLSPEHQRVQQRKESKKPPAKLQPR-OH
SMILES: CCCCCCCCOC[C@H](NC(=O)[C@H](CO)NC(=O)C(C)(C)N)C(=O)N[C@@H](Cc1ccccc1)C(=O)N[C@@H](CC(C)C)C(=O)N[C@@H](CO)C(=O)N1CCC[C@H]1C(=O)N[C@@H](CCC(=O)O)C(=O)N[C@@H](Cc1c[nH]cn1)C(=O)N[C@@H](CCC(N)=O)C(=O)N[C@@H](CCCNC(=N)N)C(=O)N[C@H](C(=O)N[C@@H](CCC(N)=O)C(=O)N[C@@H](CCC(N)=O)C(=O)N[C@@H](CCCNC(=N)N)C(=O)N[C@@H](CCCCN)C(=O)N[C@@H](CCC(=O)O)C(=O)N[C@@H](CO)C(=O)N[C@@H](CCCCN)C(=O)N[C@@H](CCCCN)C(=O)N1CCC[C@H]1C(=O)N1CCC[C@H]1C(=O)N[C@@H](C)C(=O)N[C@@H](CCCCN)C(=O)N[C@@H](CC(C)C)C(=O)N[C@@H](CCC(N)=O)C(=O)N1CCC[C@H]1C(=O)N[C@@H](CCCNC(=N)N)C(=O)O)C(C)C
B5: H-PS-S(O-octyl)-FLSPEHQRVQQRKES-K(hexadecanoyl)-KPPAKLQPR-OH (peptide)
peptide: H-PSS(Octyl)FLSPEHQRVQQRKESK(Palmitoyl)KPPAKLQPR-OH
SMILES: CCCCCCCCCCCCCCCC(=O)NCCCC[C@H](NC(=O)[C@H](CO)NC(=O)[C@H](CCC(=O)O)NC(=O)[C@H](CCCCN)NC(=O)[C@H](CCCNC(=N)N)NC(=O)[C@H](CCC(N)=O)NC(=O)[C@H](CCC(N)=O)NC(=O)[C@@H](NC(=O)[C@H](CCCNC(=N)N)NC(=O)[C@H](CCC(N)=O)NC(=O)[C@H](Cc1c[nH]cn1)NC(=O)[C@H](CCC(=O)O)NC(=O)[C@@H]1CCCN1C(=O)[C@H](CO)NC(=O)[C@H](CC(C)C)NC(=O)[C@H](Cc1ccccc1)NC(=O)[C@H](COCCCCCCCC)NC(=O)[C@H](CO)NC(=O)[C@@H]1CCCN1)C(C)C)C(=O)N[C@@H](CCCCN)C(=O)N1CCC[C@H]1C(=O)N1CCC[C@H]1C(=O)N[C@@H](C)C(=O)N[C@@H](CCCCN)C(=O)N[C@@H](CC(C)C)C(=O)N[C@@H](CCC(N)=O)C(=O)N1CCC[C@H]1C(=O)N[C@@H](CCCNC(=N)N)C(=O)O
B6: H-Inp-S-S(O-octyl)-FLSPEHQRVQQRKESKKPPAKL-K(hexadecanoyl)-PR-OH (peptide)
peptide: H-[Inp]SS(Octyl)FLSPEHQRVQQRKESKKPPAKLK(Palmitoyl)PR-OH
SMILES: CCCCCCCCCCCCCCCC(=O)NCCCC[C@H](NC(=O)[C@H](CC(C)C)NC(=O)[C@H](CCCCN)NC(=O)[C@H](C)NC(=O)[C@@H]1CCCN1C(=O)[C@@H]1CCCN1C(=O)[C@H](CCCCN)NC(=O)[C@H](CCCCN)NC(=O)[C@H](CO)NC(=O)[C@H](CCC(=O)O)NC(=O)[C@H](CCCCN)NC(=O)[C@H](CCCNC(=N)N)NC(=O)[C@H](CCC(N)=O)NC(=O)[C@H](CCC(N)=O)NC(=O)[C@@H](NC(=O)[C@H](CCCNC(=N)N)NC(=O)[C@H](CCC(N)=O)NC(=O)[C@H](Cc1c[nH]cn1)NC(=O)[C@H](CCC(=O)O)NC(=O)[C@@H]1CCCN1C(=O)[C@H](CO)NC(=O)[C@H](CC(C)C)NC(=O)[C@H](Cc1ccccc1)NC(=O)[C@H](COCCCCCCCC)NC(=O)[C@H](CO)NC(=O)C1CCNCC1)C(C)C)C(=O)N1CCC[C@H]1C(=O)N[C@@H](CCCNC(=N)N)C(=O)O
B7: H-[DPro]-S-S(O-octyl)-FLSPEHQRVQQRKES-K(hexadecanoyl)-KPPAKLQPR-OH (peptide)
peptide: XSSFLSPEHQRVQQRKESKKPPAKLQPR
modifications: DPro at position 1; Ser(O-octyl) at position 3; K(hexadecanoyl) at position 19; C-terminal -OH
B8: H-Inp-S-S(O-octyl)-FLSPEHQRVQQRKES-K(hexadecanoyl)-KPPAKLQPR-OH (peptide)
peptide: H-[Inp]SS(Octyl)FLSPEHQRVQQRKESK(Palmitoyl)KPPAKLQPR-OH
SMILES: CCCCCCCCCCCCCCCC(=O)NCCCC[C@H](NC(=O)[C@H](CO)NC(=O)[C@H](CCC(=O)O)NC(=O)[C@H](CCCCN)NC(=O)[C@H](CCCNC(=N)N)NC(=O)[C@H](CCC(N)=O)NC(=O)[C@H](CCC(N)=O)NC(=O)[C@@H](NC(=O)[C@H](CCCNC(=N)N)NC(=O)[C@H](CCC(N)=O)NC(=O)[C@H](Cc1c[nH]cn1)NC(=O)[C@H](CCC(=O)O)NC(=O)[C@@H]1CCCN1C(=O)[C@H](CO)NC(=O)[C@H](CC(C)C)NC(=O)[C@H](Cc1ccccc1)NC(=O)[C@H](COCCCCCCCC)NC(=O)[C@H](CO)NC(=O)C1CCNCC1)C(C)C)C(=O)N[C@@H](CCCCN)C(=O)N1CCC[C@H]1C(=O)N1CCC[C@H]1C(=O)N[C@@H](C)C(=O)N[C@@H](CCCCN)C(=O)N[C@@H](CC(C)C)C(=O)N[C@@H](CCC(N)=O)C(=O)N1CCC[C@H]1C(=O)N[C@@H](CCCNC(=N)N)C(=O)O
B9: H-Inp-S-S(O-octyl)-FLSPEHQRV-K(hexadecanoyl)-QRKESKKPPAKLQPR-OH (peptide)
peptide: H-[Inp]SS(Octyl)FLSPEHQRVK(Palmitoyl)QRKESKKPPAKLQPR-OH
SMILES: CCCCCCCCCCCCCCCC(=O)NCCCC[C@H](NC(=O)[C@@H](NC(=O)[C@H](CCCNC(=N)N)NC(=O)[C@H](CCC(N)=O)NC(=O)[C@H](Cc1c[nH]cn1)NC(=O)[C@H](CCC(=O)O)NC(=O)[C@@H]1CCCN1C(=O)[C@H](CO)NC(=O)[C@H](CC(C)C)NC(=O)[C@H](Cc1ccccc1)NC(=O)[C@H](COCCCCCCCC)NC(=O)[C@H](CO)NC(=O)C1CCNCC1)C(C)C)C(=O)N[C@@H](CCC(N)=O)C(=O)N[C@@H](CCCNC(=N)N)C(=O)N[C@@H](CCCCN)C(=O)N[C@@H](CCC(=O)O)C(=O)N[C@@H](CO)C(=O)N[C@@H](CCCCN)C(=O)N[C@@H](CCCCN)C(=O)N1CCC[C@H]1C(=O)N1CCC[C@H]1C(=O)N[C@@H](C)C(=O)N[C@@H](CCCCN)C(=O)N[C@@H](CC(C)C)C(=O)N[C@@H](CCC(N)=O)C(=O)N1CCC[C@H]1C(=O)N[C@@H](CCCNC(=N)N)C(=O)O
B10: H-Aib-S-S(O-octyl)-FLSPEHQRVQQRKES-K(hexadecanoyl)-KPPAKLQPR-OH (peptide)
peptide: H-[Aib]SS(Octyl)FLSPEHQRVQQRKESK(Palmitoyl)KPPAKLQPR-OH
SMILES: CCCCCCCCCCCCCCCC(=O)NCCCC[C@H](NC(=O)[C@H](CO)NC(=O)[C@H](CCC(=O)O)NC(=O)[C@H](CCCCN)NC(=O)[C@H](CCCNC(=N)N)NC(=O)[C@H](CCC(N)=O)NC(=O)[C@H](CCC(N)=O)NC(=O)[C@@H](NC(=O)[C@H](CCCNC(=N)N)NC(=O)[C@H](CCC(N)=O)NC(=O)[C@H](Cc1c[nH]cn1)NC(=O)[C@H](CCC(=O)O)NC(=O)[C@@H]1CCCN1C(=O)[C@H](CO)NC(=O)[C@H](CC(C)C)NC(=O)[C@H](Cc1ccccc1)NC(=O)[C@H](COCCCCCCCC)NC(=O)[C@H](CO)NC(=O)C(C)(C)N)C(C)C)C(=O)N[C@@H](CCCCN)C(=O)N1CCC[C@H]1C(=O)N1CCC[C@H]1C(=O)N[C@@H](C)C(=O)N[C@@H](CCCCN)C(=O)N[C@@H](CC(C)C)C(=O)N[C@@H](CCC(N)=O)C(=O)N1CCC[C@H]1C(=O)N[C@@H](CCCNC(=N)N)C(=O)O
B11: H-PS-Dap(N-octanoyl)-FLS-NH2 (peptide)
peptide: H-PS[Dap](Octanoyl)FLS-NH2
SMILES: CCCCCCCC(=O)NC[C@H](NC(=O)[C@H](CO)NC(=O)[C@@H]1CCCN1)C(=O)N[C@@H](Cc1ccccc1)C(=O)N[C@@H](CC(C)C)C(=O)N[C@@H](CO)C(N)=O

target: human growth hormone secretagogue receptor type 1a (human, UniProt Q92847 1-366); test: cell-based or functional assay
Sequence (Q92847 whole entry): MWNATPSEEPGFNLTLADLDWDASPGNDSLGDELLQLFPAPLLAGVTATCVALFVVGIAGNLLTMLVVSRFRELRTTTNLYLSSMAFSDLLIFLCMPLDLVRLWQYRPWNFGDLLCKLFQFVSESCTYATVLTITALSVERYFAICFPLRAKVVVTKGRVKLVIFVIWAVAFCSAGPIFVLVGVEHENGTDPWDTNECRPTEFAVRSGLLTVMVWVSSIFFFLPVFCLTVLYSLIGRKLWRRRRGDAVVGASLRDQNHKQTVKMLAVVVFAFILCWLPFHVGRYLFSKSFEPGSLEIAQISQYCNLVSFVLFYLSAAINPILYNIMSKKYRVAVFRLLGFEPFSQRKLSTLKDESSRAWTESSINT

| Binder | EC50 (nM); Ca2+ induction in HEK293 cells stably expressing the human ghrelin receptor |
| --- | --- |
| PSSFLSPEHQRVQQRKESKKPPAKLQPR (Dap(N-octanoyl) at position 3; C-terminal amide (-NH2)) [H-PS-Dap(N-octanoyl)-FLSPEHQRVQQRKESKKPPAKLQPR-NH2] | 0.193 nM |
| B1 | 0.136 nM |
| B2 | 0.224 nM |
| B3 | 0.26 nM |
| XSSFLSPEHQRVQQRKESKKPPAKLQPR (DPro at position 1; Ser(O-octyl) at position 3; C-terminal -OH) [H-[DPro]-S-S(O-octyl)-FLSPEHQRVQQRKESKKPPAKLQPR-OH] | 0.77 nM |
| B4 | 0.46 nM |
| B5 | 2.88 nM |
| H-PSS(Octyl)FLSPEHQRVQQRKESKKPPAKLQPR-OH [H-PS-S(O-octyl)-FLSPEHQRVQQRKESKKPPAKLQPR-OH] | 0.579 nM |
| B6 | 1.18 nM |
| B7 | 4.63 nM |
| B8 | 2.52 nM |
| B9 | 2.55 nM |
| B10 | 2.9 nM |
| B11 | 1.2 nM |
